Measurements published in patent US20150118260A1 (GENERAL HOSPITAL, published 2015).

T1: human CD80 on the human CD80-expressing leukemia cell line THP-1 (human, UniProt P33681 35-288)
T1 construct: whole, on cells
T1 sequence (looked up): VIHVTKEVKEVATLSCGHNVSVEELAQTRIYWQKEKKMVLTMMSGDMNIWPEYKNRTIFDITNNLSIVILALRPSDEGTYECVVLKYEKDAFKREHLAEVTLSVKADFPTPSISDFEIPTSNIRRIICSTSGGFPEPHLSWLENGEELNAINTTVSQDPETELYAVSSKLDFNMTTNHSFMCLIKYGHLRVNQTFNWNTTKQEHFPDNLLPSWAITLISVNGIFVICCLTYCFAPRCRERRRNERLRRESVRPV


Experiments:
[1] = target: T1, human CD80 on the human CD80-expressing …; experiment: flow cytometry with biotinylated soluble porcine CTLA-4 on THP-1 cells
[2] = target: T2, porcine CD80 on the porcine CD80-expressing B-cell lymphoma cell line LCL13271-5E4 (porcine); experiment: flow cytometry on LCL13271-5E4 cells, MFI against concentration of biotinylated protein, non-linear least-squares fit
T2 construct: whole, on cells; The cell line was picked as CD80-expressing by staining with hamster anti-mouse CD80 mAb 16-10A1; CD86 on these cells is not addressed; also called LC13271-5E4

Binder | binding result [1] | Kd [2]
glycosylated soluble porcine CTLA-4 carrying 6xHis tag in the C-terminus (aa 38-161, 124 aa + 6xHis) (receptor, N-glycosylated completely or partially (Pichia pastoris); labeled with Sulfo-NHS biotin in the direct binding and KD assays, non-biotinylated in the blocking assay, Expressed in Pichia pastoris X33; The entry includes the 6xHis tag; also called pCTLA-4-Gly; pCTLA4-6xHis) MHVAQPAVVLANSRGVASFVCEYGSAGKAAEVRVTVLRRAGSQMTEVCAATYTVEDELTFLDDSTCTGTSTENKVNLTIQGLRAVDTGLYICKVELLYPPPYYVGMGNGTQIYVIDPEPCPDSDHHHHHH | no binding | 13 nM
non-N-glycosylated soluble porcine CTLA-4 carrying 6xHis tag (aa 38-161, 124 aa + 6xHis; N76A, N108A) (receptor, labeled with Sulfo-NHS biotin in the direct binding and KD assays, non-biotinylated in the blocking assay, also called pCTLA-4-Non-N-Gly; non-N-glycosylated porcine soluble CTLA-4) MHVAQPAVVLANSRGVASFVCEYGSAGKAAEVRVTVLRRAGSQMTEVCAATYTVEDELTFLDDSTCTGTSTENKVALTIQGLRAVDTGLYICKVELLYPPPYYVGMGAGTQIYVIDPEPCPDSDHHHHHH | no binding | 13 nM
